Source: patent US20140072613A1, “Compositions and Methods for Treating Cutaneous Scarring” (priority 2012, published 2014)

Key:
Experiment in all cases: biochemical
Assay type in all cases: biochemical
266 human kinases [1] = biological target: 266 human kinases (Homo sapiens, UniProt Q9Y3S1); settings: WNK2(h); 100 μM
Outline: (§1)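 Inhibition was judged from reduced transfer of labelled phosphate from ATP to a positively charged substrate, which was captured on a negatively charged membrane and quantified by scintillation counting against a 100% activity control.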

266 human kinases [2] = biological target: T1, 266 human kinases (Homo sapiens, UniProt Q8TF76); settings: Haspin(h); 100 μM
T1 sequence (Q8TF76 1-798): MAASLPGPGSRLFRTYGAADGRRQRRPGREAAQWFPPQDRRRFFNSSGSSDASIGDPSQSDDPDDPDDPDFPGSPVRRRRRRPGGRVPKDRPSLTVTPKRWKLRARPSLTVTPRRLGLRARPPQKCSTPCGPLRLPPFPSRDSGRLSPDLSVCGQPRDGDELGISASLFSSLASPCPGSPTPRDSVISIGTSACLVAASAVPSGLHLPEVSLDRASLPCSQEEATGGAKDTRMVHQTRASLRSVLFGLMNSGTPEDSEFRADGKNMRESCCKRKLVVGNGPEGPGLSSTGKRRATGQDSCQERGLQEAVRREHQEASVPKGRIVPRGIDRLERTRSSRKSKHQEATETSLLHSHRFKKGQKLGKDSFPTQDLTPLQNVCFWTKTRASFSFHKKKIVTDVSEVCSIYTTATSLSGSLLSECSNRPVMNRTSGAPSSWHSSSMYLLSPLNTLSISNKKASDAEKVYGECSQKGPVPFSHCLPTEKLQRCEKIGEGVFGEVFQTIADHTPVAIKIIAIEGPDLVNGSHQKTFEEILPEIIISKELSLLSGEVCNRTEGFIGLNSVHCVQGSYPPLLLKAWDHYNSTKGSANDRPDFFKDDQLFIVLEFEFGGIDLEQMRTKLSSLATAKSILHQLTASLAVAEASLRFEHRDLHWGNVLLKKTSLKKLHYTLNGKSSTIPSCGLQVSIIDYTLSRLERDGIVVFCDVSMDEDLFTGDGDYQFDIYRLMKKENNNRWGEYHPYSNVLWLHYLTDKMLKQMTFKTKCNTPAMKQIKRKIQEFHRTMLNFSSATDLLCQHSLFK
Outline: as §1

266 human kinases [3] = biological target: 266 human kinases (Homo sapiens, UniProt P16234); settings: PDGFRα(h); 100 μM
Sequence of 266 human kinases (Homo sapiens, UniProt P16234) (P16234 24-1089): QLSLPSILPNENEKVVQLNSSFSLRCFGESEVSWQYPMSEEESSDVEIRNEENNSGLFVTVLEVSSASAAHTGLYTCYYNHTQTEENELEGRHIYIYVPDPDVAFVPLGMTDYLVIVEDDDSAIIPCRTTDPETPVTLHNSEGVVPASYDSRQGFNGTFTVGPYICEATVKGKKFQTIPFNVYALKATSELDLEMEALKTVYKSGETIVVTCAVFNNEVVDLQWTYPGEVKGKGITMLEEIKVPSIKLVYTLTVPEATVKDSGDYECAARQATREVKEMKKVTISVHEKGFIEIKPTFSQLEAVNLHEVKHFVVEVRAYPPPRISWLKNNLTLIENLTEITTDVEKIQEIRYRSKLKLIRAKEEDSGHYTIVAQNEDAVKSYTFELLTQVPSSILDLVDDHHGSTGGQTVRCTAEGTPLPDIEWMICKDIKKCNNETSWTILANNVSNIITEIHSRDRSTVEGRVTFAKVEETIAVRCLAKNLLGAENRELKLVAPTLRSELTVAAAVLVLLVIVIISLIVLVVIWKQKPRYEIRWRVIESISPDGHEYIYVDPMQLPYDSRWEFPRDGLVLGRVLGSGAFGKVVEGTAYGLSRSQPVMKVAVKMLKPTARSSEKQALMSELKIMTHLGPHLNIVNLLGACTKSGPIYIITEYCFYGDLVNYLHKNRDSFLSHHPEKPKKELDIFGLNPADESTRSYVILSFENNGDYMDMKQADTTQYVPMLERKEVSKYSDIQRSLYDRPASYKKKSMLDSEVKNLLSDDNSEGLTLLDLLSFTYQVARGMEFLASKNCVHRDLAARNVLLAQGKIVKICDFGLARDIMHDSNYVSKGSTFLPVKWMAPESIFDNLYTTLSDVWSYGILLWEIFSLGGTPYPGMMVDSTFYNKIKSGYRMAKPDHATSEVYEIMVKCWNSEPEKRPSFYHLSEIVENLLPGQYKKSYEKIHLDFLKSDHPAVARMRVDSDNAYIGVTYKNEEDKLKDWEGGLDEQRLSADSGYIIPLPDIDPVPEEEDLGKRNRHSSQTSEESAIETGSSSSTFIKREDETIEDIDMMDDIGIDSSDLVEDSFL
Outline: as §1

266 human kinases [4] = biological target: 266 human kinases (Homo sapiens, UniProt Q16513); settings: PRK2(h); 100 μM
Sequence of 266 human kinases (Homo sapiens, UniProt Q16513) (Q16513 whole entry): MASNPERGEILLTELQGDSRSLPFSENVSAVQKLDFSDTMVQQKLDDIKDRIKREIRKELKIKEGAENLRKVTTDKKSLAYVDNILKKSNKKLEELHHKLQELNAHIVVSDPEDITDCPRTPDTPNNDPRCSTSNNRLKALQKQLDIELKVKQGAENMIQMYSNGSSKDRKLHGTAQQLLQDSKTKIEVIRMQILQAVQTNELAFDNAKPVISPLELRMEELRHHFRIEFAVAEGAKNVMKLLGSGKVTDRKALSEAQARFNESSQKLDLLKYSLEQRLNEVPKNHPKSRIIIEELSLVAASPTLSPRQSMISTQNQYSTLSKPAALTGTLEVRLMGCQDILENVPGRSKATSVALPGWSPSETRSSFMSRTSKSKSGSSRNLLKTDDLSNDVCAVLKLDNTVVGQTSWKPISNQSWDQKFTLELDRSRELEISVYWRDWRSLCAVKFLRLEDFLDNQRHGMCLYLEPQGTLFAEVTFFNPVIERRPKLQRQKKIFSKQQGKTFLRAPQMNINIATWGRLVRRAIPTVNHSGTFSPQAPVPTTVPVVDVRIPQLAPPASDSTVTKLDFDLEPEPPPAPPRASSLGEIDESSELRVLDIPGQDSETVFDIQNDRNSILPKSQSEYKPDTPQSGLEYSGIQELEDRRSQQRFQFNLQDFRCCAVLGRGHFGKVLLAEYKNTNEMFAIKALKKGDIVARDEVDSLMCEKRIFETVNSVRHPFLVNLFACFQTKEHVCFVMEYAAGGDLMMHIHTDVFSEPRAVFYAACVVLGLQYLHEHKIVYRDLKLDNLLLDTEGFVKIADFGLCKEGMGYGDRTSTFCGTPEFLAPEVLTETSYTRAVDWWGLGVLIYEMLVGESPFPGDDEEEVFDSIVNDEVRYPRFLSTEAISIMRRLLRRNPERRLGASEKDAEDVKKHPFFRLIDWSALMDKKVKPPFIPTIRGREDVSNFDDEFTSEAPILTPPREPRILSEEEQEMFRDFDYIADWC
Outline: as §1

266 human kinases [5] = biological target: T2, 266 human kinases (Homo sapiens, UniProt Q9BXA7); settings: TSSK1(h); 100 μM
T2 sequence (Q9BXA7 1-367): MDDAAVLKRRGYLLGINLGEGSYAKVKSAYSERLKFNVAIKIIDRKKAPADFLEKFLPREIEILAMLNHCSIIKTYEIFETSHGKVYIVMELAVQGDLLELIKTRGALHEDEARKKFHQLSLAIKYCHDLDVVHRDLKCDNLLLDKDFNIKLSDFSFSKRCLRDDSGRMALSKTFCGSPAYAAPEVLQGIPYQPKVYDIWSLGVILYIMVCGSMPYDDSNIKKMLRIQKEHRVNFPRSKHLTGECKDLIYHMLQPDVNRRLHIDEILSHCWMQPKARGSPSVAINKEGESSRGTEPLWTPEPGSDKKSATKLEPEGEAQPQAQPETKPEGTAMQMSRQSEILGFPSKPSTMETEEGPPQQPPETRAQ
Outline: as §1

266 human kinases [6] = biological target: 266 human kinases (Homo sapiens, UniProt Q86V86); settings: Pim-3(h); 100 μM
Outline: as §1

266 human kinases [7] = biological target: 266 human kinases (Homo sapiens, UniProt Q13882); settings: BRK(h); 100 μM
Sequence of 266 human kinases (Homo sapiens, UniProt Q13882) (Q13882 whole entry): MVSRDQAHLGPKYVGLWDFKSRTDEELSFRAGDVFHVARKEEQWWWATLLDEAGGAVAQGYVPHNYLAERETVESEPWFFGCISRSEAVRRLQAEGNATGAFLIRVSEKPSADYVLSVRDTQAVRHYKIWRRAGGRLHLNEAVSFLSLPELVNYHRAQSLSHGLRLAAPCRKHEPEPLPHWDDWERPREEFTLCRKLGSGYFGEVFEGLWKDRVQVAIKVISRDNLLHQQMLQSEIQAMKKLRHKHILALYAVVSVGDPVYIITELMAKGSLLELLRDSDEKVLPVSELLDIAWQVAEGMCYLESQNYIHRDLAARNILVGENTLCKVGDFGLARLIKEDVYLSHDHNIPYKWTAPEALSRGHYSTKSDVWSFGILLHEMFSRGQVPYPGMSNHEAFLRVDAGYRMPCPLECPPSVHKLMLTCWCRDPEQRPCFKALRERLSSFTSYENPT
Outline: as §1

266 human kinases [8] = biological target: 266 human kinases (Homo sapiens, UniProt Q14680); settings: MELK(h); 100 μM
Sequence of 266 human kinases (Homo sapiens, UniProt Q14680) (Q14680 whole entry): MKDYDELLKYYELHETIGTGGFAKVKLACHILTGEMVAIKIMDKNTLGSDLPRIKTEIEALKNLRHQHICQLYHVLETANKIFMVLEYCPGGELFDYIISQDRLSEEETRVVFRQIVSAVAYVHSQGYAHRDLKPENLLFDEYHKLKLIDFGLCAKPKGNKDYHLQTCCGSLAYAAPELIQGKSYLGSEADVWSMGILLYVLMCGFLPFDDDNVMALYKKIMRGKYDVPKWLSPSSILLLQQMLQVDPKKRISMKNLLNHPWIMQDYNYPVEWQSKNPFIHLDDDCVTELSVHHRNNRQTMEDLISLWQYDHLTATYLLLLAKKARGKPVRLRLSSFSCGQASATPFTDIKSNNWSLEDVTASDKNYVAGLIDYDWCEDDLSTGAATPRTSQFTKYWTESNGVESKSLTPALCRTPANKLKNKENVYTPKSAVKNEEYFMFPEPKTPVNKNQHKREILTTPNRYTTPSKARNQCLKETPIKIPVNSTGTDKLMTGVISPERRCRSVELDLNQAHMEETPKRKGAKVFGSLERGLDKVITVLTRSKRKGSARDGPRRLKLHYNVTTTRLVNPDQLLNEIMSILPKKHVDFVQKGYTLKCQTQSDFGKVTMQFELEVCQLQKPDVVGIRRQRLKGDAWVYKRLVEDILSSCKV
Outline: as §1

266 human kinases [9] = biological target: 266 human kinases (Homo sapiens, UniProt P08581, Y1230H); settings: Met(Y1248H)(h); 100 μM
Outline: as §1

266 human kinases [10] = biological target: T3, 266 human kinases (Homo sapiens, UniProt P51813); settings: Bmx(h); 100 μM
T3 sequence (P51813 1-675): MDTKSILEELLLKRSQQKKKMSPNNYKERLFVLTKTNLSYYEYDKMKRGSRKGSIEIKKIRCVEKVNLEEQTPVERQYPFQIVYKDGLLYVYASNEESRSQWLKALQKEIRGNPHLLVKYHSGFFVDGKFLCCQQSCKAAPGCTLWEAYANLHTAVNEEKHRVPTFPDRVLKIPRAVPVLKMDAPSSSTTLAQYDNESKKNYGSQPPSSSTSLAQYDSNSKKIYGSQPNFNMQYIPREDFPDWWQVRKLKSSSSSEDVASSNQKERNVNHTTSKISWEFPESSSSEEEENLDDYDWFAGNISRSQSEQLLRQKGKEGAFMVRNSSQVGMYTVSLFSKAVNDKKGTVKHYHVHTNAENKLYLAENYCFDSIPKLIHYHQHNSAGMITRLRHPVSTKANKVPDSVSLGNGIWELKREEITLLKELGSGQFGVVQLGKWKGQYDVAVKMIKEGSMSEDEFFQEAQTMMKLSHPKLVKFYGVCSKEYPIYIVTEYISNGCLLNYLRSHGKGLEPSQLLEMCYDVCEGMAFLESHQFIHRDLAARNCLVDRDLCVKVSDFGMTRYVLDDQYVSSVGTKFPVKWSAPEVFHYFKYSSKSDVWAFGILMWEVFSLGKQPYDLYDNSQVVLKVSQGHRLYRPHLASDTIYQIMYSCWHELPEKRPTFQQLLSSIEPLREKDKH
Outline: as §1

266 human kinases [11] = biological target: 266 human kinases (Homo sapiens, UniProt Q05397); settings: FAK(h); 100 μM
Sequence of 266 human kinases (Homo sapiens, UniProt Q05397) (Q05397 whole entry): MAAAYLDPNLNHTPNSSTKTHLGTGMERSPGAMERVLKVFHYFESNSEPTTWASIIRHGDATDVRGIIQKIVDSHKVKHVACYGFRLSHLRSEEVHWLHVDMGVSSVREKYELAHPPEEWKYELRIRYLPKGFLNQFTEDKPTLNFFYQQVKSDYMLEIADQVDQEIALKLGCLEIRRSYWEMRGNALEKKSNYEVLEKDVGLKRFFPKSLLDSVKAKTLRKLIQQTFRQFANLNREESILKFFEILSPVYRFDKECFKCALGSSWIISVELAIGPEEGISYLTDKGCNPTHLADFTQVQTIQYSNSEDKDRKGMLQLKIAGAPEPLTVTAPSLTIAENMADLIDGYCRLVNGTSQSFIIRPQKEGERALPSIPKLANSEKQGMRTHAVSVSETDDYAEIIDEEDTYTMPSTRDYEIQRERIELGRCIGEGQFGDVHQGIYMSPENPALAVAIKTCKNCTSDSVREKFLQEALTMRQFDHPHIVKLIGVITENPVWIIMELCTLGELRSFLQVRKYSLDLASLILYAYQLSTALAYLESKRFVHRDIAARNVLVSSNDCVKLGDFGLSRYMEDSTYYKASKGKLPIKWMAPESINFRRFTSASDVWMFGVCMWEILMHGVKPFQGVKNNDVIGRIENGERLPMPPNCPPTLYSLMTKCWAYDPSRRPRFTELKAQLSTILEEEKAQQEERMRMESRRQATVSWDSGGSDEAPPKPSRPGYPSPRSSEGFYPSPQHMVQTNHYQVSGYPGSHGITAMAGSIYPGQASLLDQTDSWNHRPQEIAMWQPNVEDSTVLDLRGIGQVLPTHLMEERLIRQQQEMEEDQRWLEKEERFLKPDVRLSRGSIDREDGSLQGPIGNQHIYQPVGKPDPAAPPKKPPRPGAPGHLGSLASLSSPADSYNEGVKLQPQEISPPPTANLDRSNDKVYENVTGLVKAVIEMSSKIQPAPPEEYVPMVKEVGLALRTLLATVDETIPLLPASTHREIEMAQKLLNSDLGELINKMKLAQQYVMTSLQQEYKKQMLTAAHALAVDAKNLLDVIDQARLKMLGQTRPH
Outline: as §1

266 human kinases [12] = biological target: 266 human kinases (Homo sapiens, UniProt Q16539, T106M); settings: SAPK2a(T106M)(h); 100 μM
Sequence of 266 human kinases (Homo sapiens, UniProt Q16539, T106M) (Q16539 whole entry T106M): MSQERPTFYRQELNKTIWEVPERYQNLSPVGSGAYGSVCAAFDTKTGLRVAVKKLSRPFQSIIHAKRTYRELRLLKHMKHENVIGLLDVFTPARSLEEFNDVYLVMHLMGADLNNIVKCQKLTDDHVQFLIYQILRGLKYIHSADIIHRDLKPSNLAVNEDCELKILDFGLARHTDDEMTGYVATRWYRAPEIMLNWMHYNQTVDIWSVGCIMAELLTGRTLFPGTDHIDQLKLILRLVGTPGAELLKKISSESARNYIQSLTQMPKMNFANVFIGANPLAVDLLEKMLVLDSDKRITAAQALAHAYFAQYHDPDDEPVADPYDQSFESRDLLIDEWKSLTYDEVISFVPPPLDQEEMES
Outline: as §1

| Sequence | % activity (266 human kinases [1]) [%] | % activity (266 human kinases [2]) [%] | % activity (266 human kinases [3]) [%] | % activity (266 human kinases [4]) [%] | % activity (266 human kinases [5]) [%] | % activity (266 human kinases [6]) [%] | % activity (266 human kinases [7]) [%] | % activity (266 human kinases [8]) [%] | % activity (266 human kinases [9]) [%] | % activity (266 human kinases [10]) [%] | % activity (266 human kinases [11]) [%] | % activity (266 human kinases [12]) [%] |
| --- | --- | --- | --- | --- | --- | --- | --- | --- | --- | --- | --- | --- |
| HRRIKAWLKKIKALARQLGVAA (mammal) [MMI-0500] | 8 | 25 | 40 | 7 | 46 | 37 | 41 | 0 | 126 | 45 | 94 | 32 |
| YARAAARQARAKALNRQLGVA (mammal) [MMI-0200] | 94 | 71 | 108 | 74 | 98 | 94 | 127 | 59 | 153 | 76 | 110 | 100 |
